Laboratory results as given in patent US20120009199A1 (AstraZeneca / MedImmune, published 2012).

Molecular target: the molecule itself
Experiment: stopped-flow kinetics with light scattering detection, dilution from 10 to 1 mg/ml at 4 C, self-association
Source text: High molecular weight forms are known to cause increased intensity of light scattering compared to monomer. Dissociation of the MabA present in the HPSEC shoulder, (apparent molecular weight of 213 kDa) would, therefore, be expected to result in a decrease in light scattering.

B1: MabA (antibody, human IgG2, V domains shown)
VH: QVQLVESGGGLVKPGGSLRLSCAASGFTFSDYYMNWIRQAPGKGLEWVSYISSSGSIIYYADSVKGRFTISRDNAKNSLYLQMNSLRAEDTAVYYCAREGRIAARGMDVWGQGTTVTVSS
VL: DIQMTQSPSSLSASVGDRVTITCRPSQSFSRYINWYQQKPGKAPKLLIYAASSLVGGVPSRFSGSGSGTDFTLTISSLQPEDFATYYCQQTYSNPPITFGQGTRLEIK
notes: Full-length human IgG2; also called anti-PDGFR-alpha antibody; human IgG2 anti-PDGFR-alpha antibody
apparent half-life of dissociation of the self-associated species: 14 s
